The source of these data is patent publication US20230312722A1 (NONA BIOSCIENCES SUZHOU, published 2023).

Assay [1] concerns the target T1, mouse B7H4 on the cell surface (mouse, UniProt Q7TSP5 25-257).
T1 construct: whole, on cells; also called CHOK1/m B7H4
T1 sequence (looked up): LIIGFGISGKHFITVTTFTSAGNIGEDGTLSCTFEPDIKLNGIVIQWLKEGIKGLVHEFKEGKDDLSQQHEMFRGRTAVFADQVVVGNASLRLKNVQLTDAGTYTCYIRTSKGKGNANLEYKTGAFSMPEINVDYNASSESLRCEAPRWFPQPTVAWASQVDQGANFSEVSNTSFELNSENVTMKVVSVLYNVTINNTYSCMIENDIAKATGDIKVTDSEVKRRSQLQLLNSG
In words: FACS, CHOK1/m B7H4 cells (FIG. 5). As to the method: (§1) This example is intended to investigate the in vitro binding activity of anti-human B7H4 H2L2 monoclonal antibody to human/cynomolgus monkey/mouse B7H4. Antibody binding experiments at the cellular level were performed using CHOK1 cell line overexpressing human B7H4 (CHOK1/hu B7H4, Harbour BioMed), CHOK1 cell line overexpressing cynomolgus monkey B7H4 (CHOK1/cyno B7H4, Harbour BioMed), CHOK1 cell line overexpressing mouse B7H4 (CHOK1/m B7H4, Harbour BioMed) and SK-BR-3 cell line (ATCC® HTB-30) highly expressing human B7H4. Briefly, CHOK1/hu B7H4 cells, CHOK1/cyno B7H4 cells, CHOK1/m B7H4 cells or SK-BR-3 cells were digested and resuspended with PBS containing 2% BSA. The cell density was adjusted to 1×10⁶ cells/mL. The cells were seeded in a 96-well V-bottom plate (Corning, #3894) at 100 μL/well, followed by the addition of test antibodies diluted in a 3-fold concentration gradient of 2 times the final concentration, each at 100 μL/well. The cells were incubated at 4° C. for 2 h away from light. Thereafter, the cells in each well were rinsed twice with 100 μL of pre-cooled PBS containing 2% BSA, and centrifuged at 500 g at 4° C. for 5 min, and then the supernatant was discarded. […] Finally, the cells in each well were resuspended with 200 μL of pre-cooled PBS containing 2% BSA, and the fluorescence signal values were read using an ACEA Novocyte3000 flow cytometer.
Background: Flow cytometry measures light scatter and fluorescence of single cells or particles in a stream.

Assay [2] deals with T2, human B7H4 on the cell surface (human, UniProt Q7Z7D3 25-282).
T2 construct: whole, on cells; also called CHOK1/hu B7H4; B7H4 on SK-BR-3
T2 sequence (looked up): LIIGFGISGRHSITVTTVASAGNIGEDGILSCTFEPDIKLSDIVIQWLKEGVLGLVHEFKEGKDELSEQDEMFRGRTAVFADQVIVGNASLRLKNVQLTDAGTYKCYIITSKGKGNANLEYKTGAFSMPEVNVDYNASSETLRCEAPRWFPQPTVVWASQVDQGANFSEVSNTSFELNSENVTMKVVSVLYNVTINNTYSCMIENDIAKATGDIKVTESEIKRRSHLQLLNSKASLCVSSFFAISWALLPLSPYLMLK
Put plainly: FACS, SK-BR-3 cells. As to the method:
(§2) This example is intended to investigate the in vitro binding activity of anti-human B7H4 H2L2 monoclonal antibody to human/cynomolgus monkey/mouse B7H4. Antibody binding experiments at the cellular level were performed using CHOK1 cell line overexpressing human B7H4 (CHOK1/hu B7H4, Harbour BioMed), CHOK1 cell line overexpressing cynomolgus monkey B7H4 (CHOK1/cyno B7H4, Harbour BioMed), CHOK1 cell line overexpressing mouse B7H4 (CHOK1/m B7H4, Harbour BioMed) and SK-BR-3 cell line (ATCC® HTB-30) highly expressing human B7H4. Briefly, CHOK1/hu B7H4 cells, CHOK1/cyno B7H4 cells, CHOK1/m B7H4 cells or SK-BR-3 cells were digested and resuspended with PBS containing 2% BSA. The cell density was adjusted to 1×10⁶ cells/mL. The cells were seeded in a 96-well V-bottom plate (Corning, #3894) at 100 μL/well, followed by the addition of test antibodies diluted in a 3-fold concentration gradient of 2 times the final concentration, each at 100 μL/well. The cells were incubated at 4° C. for 2 h away from light. Thereafter, the cells in each well were rinsed twice with 100 μL of pre-cooled PBS containing 2% BSA, and centrifuged at 500 g at 4° C. for 5 min, and then the supernatant was discarded. Then 100 μL of a fluorescent secondary antibody (Alexa Fluor 488-conjugated AffiniPure Goat Anti-Human IgG, Fcγ Fragment Specific, Jackson, #109-545-098, 1:500 diluted) was added to each well. The plate was incubated away from light at 4° C. for 1 h. The cells in each well were washed twice with 100 μL of pre-cooled PBS containing 2% BSA, and centrifuged at 500 g at 4° C. for 5 minutes, and then the supernatant was discarded. Finally, the cells in each well were resuspended with 200 μL of pre-cooled PBS containing 2% BSA, and the fluorescence signal values were read using an ACEA Novocyte3000 flow cytometer.

The target in assay [3] is T3, cynomolgus monkey B7H4 on the cell surface (cynomolgus monkey, UniProt A0A2K5U6P5 25-282).
T3 construct: whole, on cells; also called CHOK1/cyno B7H4
T3 sequence: T2 sequence (looked up) with L53I, F242L, S252A
Put plainly: FACS, CHOK1/cyno B7H4 cells. As to the method: as §2

The target in assay [4] is T2, human B7H4 on the cell surface. Put plainly: FACS, CHOK1/hu B7H4 cells. As to the method: as §2
Assay [5] shares this target. In words: FACS on MDA-MB-468 cells (head of the figure); the same number stands in Table 2-3 of the text under the head SK-BR-3.
Assay [6] shares this target. In words: FACS on MDA-MB-468 cells.
Assay [7] shares this target. In words: FACS on MDA-MB-468 cells; in the drawn table the number stands under the head 'EC50 (nM)' (the two heads are interchanged).
Assay [8] has the same target. In words: FACS on MDA-MB-468 cells; in the drawn table the number stands under the head 'Maximum MFI' (the two heads are interchanged); the head says nM, the axis of the curve µg/mL.
The target is the same in assay [9]. Put plainly: FACS, tumor cells (table head: SK-BR-3). As to the method:
as §1

The target in assay [10] is T4, human B7-H4 (recombinant protein of the BLI affinity assay, Example 7.2) (human, UniProt Q7Z7D3 29-258, limits assumed).
T4 construct: also called human B7H4 protein
T4 sequence (looked up): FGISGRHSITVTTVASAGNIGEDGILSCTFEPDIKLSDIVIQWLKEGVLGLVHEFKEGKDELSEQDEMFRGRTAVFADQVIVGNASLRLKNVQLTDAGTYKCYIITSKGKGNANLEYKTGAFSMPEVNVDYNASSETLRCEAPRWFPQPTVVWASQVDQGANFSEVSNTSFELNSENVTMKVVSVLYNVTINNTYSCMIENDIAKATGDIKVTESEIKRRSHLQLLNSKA
In words: BLI (Octet Red 96e), antibody captured on AHC sensor, human B7-H4 in solution, 1:1 global fit. As to the method: When the affinity of the antigen for the antibody was determined, the rotation speed of the sensor was set at 1000 rpm/min. The AHC sensors (Fortebio, #18-5060) placed in a row were equilibrated for 10 minutes in a test buffer before the AHC sensors were used to capture the B7-H4 antibodies at a capture height of 0.7 nm; the AHC sensors, after equilibrated in the buffer for 120 s, bound to 2-fold serially diluted human B7-H4 (concentrations were 50 nM-3.125 nM and 0 nM) for 180 s, followed by dissociation for 300 s. Finally, the AHC sensor was immersed in a 10 mM glycine-hydrochloric acid solution at pH 1.5 for regeneration to elute the proteins bound to the sensor.
When data analysis was performed using Octet Data Analysis software (Fortebio, version 11.0), 0 nM was taken as a reference well, and reference subtraction was performed; the “1:1 Global fitting” method was selected to fit the data, and the kinetics parameters of the binding of antigens to antigen-binding proteins were calculated, with kₒₙ (1/Ms) values, kdis (1/s) values and KD(M) values obtained (see Table 7-2).
In general terms: Biolayer interferometry detects binding as a change in optical thickness at a sensor tip.

Positions count from the first letter of the chain named. Names and notes keep the numbering of the source.

B1: PR002038 (antibody, human IgG1, kappa, V domains shown)
VH: QVQLVQSGAEVKKPGSSMRVSCKASEDTFSSYAISWVRQAPGQGLEWMGGTAPIFGTTNYAQKFQGRVTITADKSTSTAYMELSSLRSEDTAVYYCARGGPYFDYWGQGTLVTVSS
VL: DIQLTQSPATLSVSPGERATLSCRASQSVSSNLAWYQQKPGQAPRLLIYGDYIRATGIPARFSGSGSGTEFTLTISSLQSEDIATYYCQQYVDLPITFGQGTRLEIKR
notes: Initial antibody, human IgG1; also called 1025_B-2A1
As usually defined, the EC50 is the concentration giving half of the maximal effect. Consider B1, for which the binding result in assay [1] is listed as “no binding”. Moreover, the values for the EC50 in assay [2], in assay [3] and in assay [4] were 85.6 nM, 24.8 nM and 20 nM, respectively. Also, the figures for the “Maximum MFI” value in [2], in [3] and in [4] were 82800 MFI, 677000 MFI and 1.15e+06 MFI, respectively.

B2: PR003369 (antibody, human IgG1, kappa, V domains shown)
VH: QVQLVESGGGVVQPGRSLRLSCAASGFTFRSFGMHWVRQAPGKGLEWVAVISYDASNEYYADSVKGRFIISRDNSKDTLYLQMNSLRAGDTAVYYCAKGGALRWYFAYWGQGTLVTVSS
VL: EIVMTQSPATLSVSPGERATLSCRASQSISSNLGWYQQKPGQAPRLLIYGASTRATGIPARFSGSGSGTEFTLTISSLQSEDFAVYYCQQYRSWPPLTFGGGTKVEIKR
notes: L: N92R; Fc S239D, I332E), human IgG1
One may read the EC50 (read off the curve) as the concentration at which the effect is half-maximal. What is called Kd is the constant that tells how readily two partners part at equilibrium. Broadly, the koff is the rate constant with which the complex falls apart. One may read the kon as a measure of how fast the partners come together. With B2, the EC50 in [5] came to 0.434 nM. Moreover, the “EC50 (read off the curve)” value in [6] was ~0.05 µg/mL. Further, the “Maximum MFI” value in [7] was found to be 204000. Besides, the EC50 in assay [8] is 0.0508 nM. Besides, the EC50 in assay [9] came out at 0.434 nM. In addition, in [10], the Kd turned out to be 1.39 nM, the koff came out at 0.000394 s⁻¹ and the kon turned out to be 283000 M⁻¹ s⁻¹.
